Experiment [1] concerns the target T1, Siglec-7-ECD-Fc (human, UniProt Q9Y286 19-353).
T1 construct: also called recombinant Siglec-7-Fc; Siglec-7-ECD-huFc; not shown: human Fc (huFc)
In words: ligand blocking assay, flow cytometry: antibody (40 nM to 40 pM) mixed with 10 nM Siglec-7-ECD-Fc; blocked: binding of Siglec-7-ECD-Fc to its ligands on A375 melanoma cells. The procedure:
Recombinant Siglec-7-Fc was added to A375 cells in the presence of anti-Siglec-7 antibodies at increasing concentrations and binding of the complex was detected on the cell surface.
Human melanoma cell line A375, which expresses high level of ligands for Siglec-7, was used to determine the blocking activity of anti-Siglec-7 antibodies in a cell based assay. Two-fold serial dilutions of anti-Siglec-7 antibodies (40 nM to 40 pM) were combined with 10 nM Siglec-7-ECD-Fc in FACS buffer (PBS/2% BSA) and incubated on ice for 30 minutes. 2.5×10e4 A375 cells per well were added to round bottom 96-well tissue culture plates in FACS buffer, plates were centrifuged at 400 g for 2 min, supernatant was removed and cells were re-suspended in 100 ul of the antibody-Siglec-7 complexes. After a 1 hour incubation on ice, cells were washed twice and incubated for 30 minutes with goat anti-human F(ab′)2 fragment conjugated to AF647 (Jackson IR labs) at 1 ug/ml in FACS buffer. After two more washes, cells were fixed in PBS/2% PFA and acquired on a Novocyte flow cytometer (ACEA biosciences). IC₅₀ values for blocking were determined based on plotting mean fluorescence in the APC channel and analysis using Prism Graphpad software.

In experiment [2] the target is T2, Siglec-7-ECD (human, UniProt Q9Y286 19-353).
T2 construct: also called p75; AIRM
Description: bio-layer interferometry (ForteBio), 25 C, antibody captured on the sensor, Siglec-7-ECD as analyte 50 to 1.56 nM, 1:1 global fit. The method, then: Antibody binding analysis was carried out by bio-layer interferometry (ForteBio). […] Antibodies were captured on anti-mouse kinetic sensors at 0.5 ug/mL; Siglec-7-ECD was used as analyte and diluted in assay buffer from 50 nM to 1.56 nM with 2× dilutions. Two-minute associations were conducted, followed by 10-minute dissociations. Results were determined relative to a control empty reference AHC sensor, and analyzed using ForteBio analysis software with 1:1 global fit parameters.
A general note: BLI is a label-free optical method that tracks binding on a fibre tip over time.

The target in experiment [3] is T2, Siglec-7-ECD. Description: bio-layer interferometry (ForteBio), 25 C, antibody captured on the sensor, Siglec-7-ECD as analyte 50 to 1.56 nM, 1:1 global fit; the same value stands beside the sensorgrams ('QA79 KD=706pM', four traces up to about 0.16 nm, visible dissociation to 780 s).
Experiment [4] deals with Siglec-7 on primary human NK cells (human, UniProt Q9Y286 19-467). In words: cell-based or functional assay.
Siglec-7 on primary human NK cells, sequence (Q9Y286 19-467 limits assumed): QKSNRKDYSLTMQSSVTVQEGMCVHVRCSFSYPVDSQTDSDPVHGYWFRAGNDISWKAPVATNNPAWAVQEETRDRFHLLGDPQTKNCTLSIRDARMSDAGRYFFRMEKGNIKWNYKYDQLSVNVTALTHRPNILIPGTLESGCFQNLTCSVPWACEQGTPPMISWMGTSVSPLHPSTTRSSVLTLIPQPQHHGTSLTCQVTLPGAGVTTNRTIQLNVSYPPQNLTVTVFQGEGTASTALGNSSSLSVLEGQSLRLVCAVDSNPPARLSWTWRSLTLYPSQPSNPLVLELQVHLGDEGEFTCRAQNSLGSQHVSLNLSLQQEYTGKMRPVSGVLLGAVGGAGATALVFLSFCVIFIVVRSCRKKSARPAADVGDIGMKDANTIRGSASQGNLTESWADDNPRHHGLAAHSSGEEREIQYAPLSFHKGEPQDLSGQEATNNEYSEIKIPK

T1 sequence (Q9Y286 19-353): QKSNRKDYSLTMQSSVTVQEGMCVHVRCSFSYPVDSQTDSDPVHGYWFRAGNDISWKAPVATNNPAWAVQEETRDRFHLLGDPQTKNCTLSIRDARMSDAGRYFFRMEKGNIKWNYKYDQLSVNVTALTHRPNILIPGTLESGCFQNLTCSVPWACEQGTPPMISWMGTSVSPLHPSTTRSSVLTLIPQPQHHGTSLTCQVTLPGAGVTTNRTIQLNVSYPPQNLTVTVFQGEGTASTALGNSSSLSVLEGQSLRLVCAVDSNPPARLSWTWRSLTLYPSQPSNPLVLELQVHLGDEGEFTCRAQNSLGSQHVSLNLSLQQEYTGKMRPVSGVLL
T2 sequence (Q9Y286 19-353 limits assumed): as the sequence (Q9Y286 19-353) above

As usually defined, the IC50 is the concentration that gives 50% inhibition. A higher IC50 goes with weaker potency. As usually defined, the Kd is the equilibrium constant for the complex coming apart. In turn, anti-Siglec-7 antibody S7.7 gave an IC50 in experiment [1] of 4.26 nM. Further, the Kd in experiment [2] worked out at 0.422 nM.
anti-Siglec-7 antibody QA79 yielded an IC50 in experiment [1] of 7.49 nM. The same molecule came in with a Kd in experiment [3] of 0.706 nM.
Consider anti-Siglec-7 antibody Z176, for which, in experiment [2], the equilibrium dissociation constant (Kd) came to 0.086 nM.

B1: monoclonal antibody 16H11 (antibody, V domains shown)
VH: QVQLHQSGAELVKPGASVKISCKGSGYDFSNFWMNWVKQRPGKGLEWIGQIYPGDGEIKYNGKFKGKATLTADESSSTAYIHLSSLTSEDSAVYFCARDDYLRAMDYWGQGTSVTVSS
VL: DIQMTQSPASLSASVGETVTITCRASGNIHNYLAWFQQKQGKSPHFLVYSAKALADGVPSRFSGSGSGTQYSLKINSLQPEDFGTYYCQHFWSSPYTFGGGTKLEIK
As to B1, the “IC50 (read off the curve), internalization of Siglec-7” value (“IC50 (read off the curve)” below) in experiment [4] is approximately 10 pM.

B2: 5215-2 (antibody, V domains shown)
VH: DVQLQESGPGLVKPSQSLSLTCTVTGYSITSDYVWTWIRQFPGNKLEWMGYITYSDSTNYNPSLKSRLSITRDTSKNQFFLQLSSVTTEDTATYFCARSLTGNYFDYWGQGTTLTVSS
VL: VIVLTQSPASLEVSLGQRATISCRASQTVRISSYSYMNWYQQKPGQPPKLLIKYASNLESGVPARFSGSGSGTDFTLNIHPVEEEDTATYYCQHSWKIPTFGGGTKLEIK
notes: anti-Siglec-7 monoclonal antibody of the panel
In turn, B2 showed an IC50 in experiment [1] of 4.12 nM. Further, binding in experiment [2] was characterised by a dissociation constant (Kd) of 0.149 nM.

B3: monoclonal antibody 8A2 (antibody, V domains shown)
VH: QVQLKESGPGLVAPSQSLSITCTVSGFSLTTYGVDWVRQFPGKGLEWLGVIWGGGNTNYNSALMSRLSISKDTSKSQVFLKMNSLQTDDTAMYYCAKHKGTSHAMEYWGQGTSVTVSS
VL: QIVLTQSPAIMSASPGEKVTMTCSASSRVIFMYWYQQKPGSSPRLLIYDTSNLASGVPVRFSGGGSGTSYSLTISRMEAEDAATYYCQQWSSYPPTFGAGTKLELK
Take B3: in experiment [4], the “IC50 (read off the curve)” value was approximately 10 pM.

B4: 5215-9 (antibody, V domains shown)
VH: EVQLQQSGAELVKSGASVKLSCTASGFNIKDTYMHWVKQRPEKGLEWIGWIDPADGHTKYDPKFQGKATITADTSSNTAYLHLSSLTSEDAAVYYCPRGGSSPYFDYWGQGTTLTVSS
VL: DIVLTQSPASLTISLGQRATISCRASQSVSTSTYSYIHWYQQKPGQPPKLLIKYASNLASGVPARFSGSGSGTDFSLSIHPMEEEDTATYYCQHSWKIPFTFGSGTKLEIK
notes: as for B2
Regarding B4, in experiment [1], the IC50 was 5.33 nM. In addition, the affinity in experiment [2], expressed as Kd, was 0.001 nM.

B5: monoclonal antibody 3F1 (antibody, V domains shown)
VH: EFQLQQSGPEMVKPGASVKMSCKASGDSFTDYKINWVKQNNGKSLEWIGVINPDSGTTSYNQIFEGKATLTVDQSSSTAYMQVNRLTSEDSAVYYCTTWDDYSFYAMDYWGQGTSVTVSS
VL: DVLMTQTPLSLPVSLGDQASISCRSSQNIVHSNGNTYLEWFLQKPGQSPKLLIYKVSNRFSGVPDRFSGSGSGTDFTLKISRVEAEDLGVYYCFQGSHIPWTFGGGTKLEIK
In the case of B5, in experiment [4], the “IC50 (read off the curve)” value was approximately 10 pM.

B6: 5215-13 (antibody, V domains shown)
VH: EVQLQQSGAELVKPGASVKLSCTVSGFNFKDTYIHWVKQRPEQGLEWIGRIDPANGNTKYASKFQDKATITADTSSNTVYMQLSSLTSEDTAVYYCTRGWDGYYFDCWGQGTTLTVSS
VL: DIVLTQSPASLVVSLGLRATISCRASQSVSTSSHSYLHWYQQKPGQPPKLLIKYASNLASGVPARFSGSGSGADFTLNIHPVEEEDTATYYCQHSWEIPYTFGGGTKLEIK
notes: as for B2
As for B6, the half-maximal inhibitory concentration (IC50) in experiment [1] is 1.32 nM. For the same molecule, in experiment [2], binding was put at a Kd of 0.99 nM.
